The chains are these.
B1: Girentuximab humanised VH1/Vκ1 IgG1 (antibody, V domains shown)
VH: DVKLVESGGGLVKPGGSLRLSCAASGFTFSNYYMSWVRQAPGKGLELVAAINSDGGITYYLDTVKGRFTISRDNAKNTLYLQMSSLKSEDTALYYCARHRSGYFSMDYWGQGTSVTVSS
VL: DIVMTQSPSFLSASVGDRVTITCKASQNVVSAVAWYQQKPGQAPKLLIYSASNRYTGVPDRFTGSGSGTDFTLTISSLQSEDLADYFCQQYSNYPWTFGGGTKVEIKR
B2: Girentuximab humanised VH1/Vκ3 IgG1 (antibody, V domains shown)
VH: B1 VH
VL: B1 VL with V3Q, F10S, K45R, T63S, S80A
B3: Girentuximab humanised VH5/Vκ3 IgG1 (antibody, V domains shown)
VH: B1 VH with D1E, K3Q, L47W, S84N, K87R, S88A, S114L
VL: B1 VL with V3Q, F10S, K45R, T63S, S80A
B4: Girentuximab humanised VH1/Vκ4 IgG1 (antibody, V domains shown)
VH: B1 VH
VL: B1 VL with V3Q, F10S, K45R, T63S, S80A, F87Y
B5: Girentuximab humanised VH5/Vκ5 IgG1 (antibody, V domains shown)
VH: B1 VH with D1E, K3Q, L47W, S84N, K87R, S88A, S114L
VL: B1 VL with V3Q, F10S, K45R, L46R, T63S, S80A, F87Y
B6: Girentuximab humanised VH4/Vκ1 IgG1 (antibody)
heavy: not shown
light: DIVMTQSPSFLSASVGDRVTITCKASQNVVSAVAWYQQKPGQAPKLLIYSASNRYTGVPDRFTGSGSGTDFTLTISSLQSEDLADYFCQQYSNYPWTFGGGTKVEIKRTVAAPSVFIFPPSDEQLKSGTASVVCLLNNFYPREAKVQWKVDNALQSGNSQESVTEQDSKDSTYSLSSTLTLSKADYEKHKVYACEVTHQGLSSPVTKSFNRGEC
B7: Girentuximab humanised VH4/Vκ5 IgG1 (antibody)
heavy: not shown
light: B6 light with V3Q, F10S, K45R, L46R, T63S, S80A, F87Y
B8: Girentuximab humanised VH5/Vκ2 IgG1 (antibody, V domains shown)
VH: B1 VH with D1E, K3Q, L47W, S84N, K87R, S88A, S114L
VL: B1 VL with F10S, K45R, S80A
B9: Girentuximab humanised VH1/Vκ2 IgG1 (antibody, V domains shown)
VH: B1 VH
VL: B1 VL with F10S, K45R, S80A
B10: Girentuximab humanised VH1/Vκ5 IgG1 (antibody, V domains shown)
VH: B1 VH
VL: B1 VL with V3Q, F10S, K45R, L46R, T63S, S80A, F87Y
B11: Girentuximab humanised VH5/Vκ4 IgG1 (antibody, V domains shown)
VH: B1 VH with D1E, K3Q, L47W, S84N, K87R, S88A, S114L
VL: B1 VL with V3Q, F10S, K45R, T63S, S80A, F87Y
B12: Girentuximab humanised VH3/Vκ5 IgG1 (antibody)
heavy: not shown
light: B6 light with V3Q, F10S, K45R, L46R, T63S, S80A, F87Y
B13: Girentuximab humanised VH3/Vκ1 IgG1 (antibody)
heavy: not shown
light: B6 light
B14: Girentuximab humanised VH5/Vκ1 IgG1 (antibody, V domains shown)
VH: B1 VH with D1E, K3Q, L47W, S84N, K87R, S88A, S114L
VL: B1 VL

Changes are numbered by the printed parent chain.

The target in this assay is human carbonic anhydrase IX (CAIX) (human, UniProt Q16790 38-414). The assay is described as follows: SPR (Biacore T200), single cycle kinetics; antibody in HEK EBNA supernatant captured on Protein G chip, CAIX as analyte.
Protocol: All single cycle kinetic experiments were run at 25° C. with HBS-P+ running buffer (pH 7.4) (GE Healthcare, Little Chalfont, UK). For direct comparison, all antibodies were captured on a Protein G chip (GE Healthcare, Uppsala, Sweden).
Antibodies were diluted in running buffer to a final concentration of 0.5 μg/ml, based on concentrations assessed by ELISA titre. At the start of each cycle, antibodies were loaded onto Fc2, Fc3 and Fc4 of the Protein G chip (GE Healthcare, Little Chalfont, UK). IgGs were captured at a flow rate of 10 μl/min to give an immobilisation level (RL) of ˜79 RU, the theoretical value to obtain an Rmax of ˜50 RU. The surface was then allowed to stabilise. Single cycle kinetic data was obtained with Carbonic Anhydrase IX (CAIX, Stratech, Newmarket, UK) as the analyte at a flow rate of 30 μl/min to minimise any potential mass transport limitations. […] The signal from the reference channel Fc1 (no antibody) was subtracted from that of Fc2, Fc3 and Fc4 to correct for differences in non-specific binding to a reference surface. […] The association phase for the four injections of increasing concentrations of CAIX was monitored for 200 seconds each time and a single dissociation phase was measured for 300 seconds following the last injection of CAIX. Regeneration of the Protein G surface was conducted using an injection of 10 mM glycine-HCL pH 1.5 followed by an injection of 10 mM glycine-HCL pH 1.5 containing 0.5% P20.
For the molecule B1, the “relative KD (against the reference chimeric VH0/Vκ0 IgG1)” value (shortened to “relative KD”) was at most 2 fold.
For B2, the “relative KD” value is at most 2 fold.
Turning to B3, the binding result was “binds”.
As for B4, the “relative KD” value is at most 2 fold.
With B5, the binding result is “binds”.
Take B6: the “relative KD” value is at most 2 fold.
In the case of B7, the binding result was “binds”.
Same read-out and setting: to B8 belongs “binds”.
Consider B9, for which the “relative KD” value was at most 2 fold.
B10: the binding result is “binds”.
The same measure, in the same setting: to B11 belongs “binds”; to B12, “binds”.
As to B13, the “relative KD” value was at most 2 fold.
For the molecule B14, the binding result is given as “binds”.

Values taken from patent US20220331457A1 (TELIX INTERNATIONAL, published 2022).
